Test [1] addresses HER-2 protein (also designated neu and erbB-2), endogenous in human MDA-MB-468 cells (human) (UniProt P04626). Description: FACS, MDA-MB-468 cells, irrelevant IgG2b control at 1/100, Alexa Fluor 488 secondary; background. In general terms: Flow cytometry measures light scatter and fluorescence of single cells or particles in a stream.
Test [2] shares this target. As to the kind of experiment: FACS, fixed and permeabilized parental MDA-MB-468 cells, antibody at 1/100, Alexa Fluor 488 secondary.

Experimental findings from patent US20030182672A1 are described below.

With “irrelevant primary antibody MART-1, an IgG2b antibody (NeoMarkers)”, in test [1], the Geometric mean Fluorescence was 122 and the Mean Fluorescence amounted to 137.

Regarding “mouse Anti-erbB2 monoclonal antibody (Transduction Laboratories, Cat. No. E19420, an IgG2b isotype)”, in test [2], the Geometric mean Fluorescence is 1090, the Mean Fluorescence came to 1220 and the Median Fluorescence is 1180.
